These results are taken from US20240294617A1 (Ablynx, published 2024).

The koff is the rate constant with which the complex falls apart. As usually defined, the Kd is the constant that tells how readily two partners part at equilibrium. By kon is commonly meant a measure of how fast the partners come together.

Experiment [1] addresses T1, human serum albumin (Sigma-Aldrich A3782) (human, UniProt P02768 25-609).
T1 construct: Bought protein; also called HSA; human SA
The experiment in a line: SPR (ProteOn), HSA immobilised, 500 nM injected, dissociation at pH 5.0.

Experiment [2] addresses T1, human serum albumin (Sigma-Aldrich …). Description: SPR (ProteOn), HSA immobilised, 500 nM injected, dissociation at pH 6.0.
The target in experiment [3] is T2, mouse serum albumin (Albumin Bioscience 2601) (mouse, UniProt P07724 25-608).
T2 construct: Bought protein; also called mouse SA
The experiment in a line: SPR (ProteOn XPR36), SA immobilised, pH 7.4.

Experiment [4] addresses T1, human serum albumin (Sigma-Aldrich …). Description: SPR (ProteOn XPR36), SA immobilised, pH 7.4.
Experiment [5] concerns the target T3, cynomolgus monkey serum albumin (generated in-house) (cynomolgus monkey, UniProt A2V9Z4 25-608, limits assumed).
T3 construct: also called cyno SA
The experiment in a line: SPR (ProteOn XPR36), SA immobilised, pH 7.4.

Experiment [6] concerns the target T4, pig serum albumin (Sigma-Aldrich A4414) (pig, UniProt P08835 25-607).
T4 construct: Bought protein; also called pig SA
The experiment in a line: SPR (ProteOn XPR36), SA immobilised, pH 7.4.

The target of experiment [7] is T5, dog serum albumin (Abcam 119814) (dog, UniProt P49822 25-608).
T5 construct: Bought protein; also called dog SA
The experiment in a line: SPR (ProteOn XPR36), SA immobilised, pH 7.4.

For experiment [8], the target named is T6, rat serum albumin (Sigma-Aldrich A4538) (rat, UniProt P02770 25-608).
T6 construct: Bought protein; also called rat SA
The experiment in a line: SPR (ProteOn XPR36), SA immobilised, pH 7.4.

The target in experiment [9] is T7, guinea pig serum albumin (Gentaur GPSA62) (guinea pig).
T7 construct: also called guinea pig SA
Description: SPR (ProteOn XPR36), SA immobilised, pH 7.4.

Experiment [10] addresses T1, human serum albumin (Sigma-Aldrich …). Description: SPR (ProteOn), HSA immobilised, 500 nM injected, dissociation at pH 7.4.
Experiment [11] shares this target. The experiment in a line: competition ELISA on coated HSA.

Substitutions are numbered along the chain they refer to.

B1: serum albumin binder of SEQ ID NO:19 (invention) (VHH)
VHH: EVQLVESGGGVVQPGGSLRLSCAASGSTISSYVMGWFRRAPGKEREFVAAISRSGGYTYYADSVKGRFTISRDNSKKTAYLQMNSLRPEDTALYYCAAGRYSAWYSQSYEYDYWGQGTLVTVSS
notes: Monovalent Nanobody; also called T023500043
As for B1, the koff in experiment [1] is 7.5e-05 s⁻¹; in experiment [2], 6.7e-05 s⁻¹; in experiment [3], 1.5e-05 s⁻¹; in experiment [4] it was 3.7e-05 s⁻¹; in [5], 1.4e-05 s⁻¹; in experiment [6] it was 0.036 s⁻¹. The koff in experiment [7] stood at 0.0025 s⁻¹; in experiment [8], 1.5e-05 s⁻¹; in experiment [9], 5.6e-05 s⁻¹; in [10] it was 6e-05 s⁻¹. Besides, the Kd in experiment [3] worked out at 16 pM; in [4], 46 pM; in experiment [5], 16 pM; in [6], 290000 pM; in experiment [7], 2800 pM; in experiment [8], 12 pM. This molecule yielded a Kd in experiment [9] of 59 pM. Besides, the kon in experiment [3] amounted to 940000 M⁻¹ s⁻¹; in experiment [4] it was 790000 M⁻¹ s⁻¹; in experiment [5], 830000 M⁻¹ s⁻¹; in experiment [6], 120000 M⁻¹ s⁻¹; in [7], 900000 M⁻¹ s⁻¹; in [8], 1.2e+06 M⁻¹ s⁻¹. This molecule also returned a kon in experiment [9] of 940000 M⁻¹ s⁻¹.

B2: His6Flag3-SEQ ID NO:20 (VHH, not shown: small tags and cut ends)
VHH: B1 VHH with T28N
With B2, in [11], the binding result is “binds”.
